Results on 19 molecules are retold here after patent US20260209386A1 (MYTHIC THERAPEUTICS, published 2026).

The chains are these.
T1: Human PTK7 Protein, His Tag, Acro Biosystems (human, UniProt Q13308 31-704)
T1 construct: Bought protein; also called CCK4; not shown: His tag
T1 sequence: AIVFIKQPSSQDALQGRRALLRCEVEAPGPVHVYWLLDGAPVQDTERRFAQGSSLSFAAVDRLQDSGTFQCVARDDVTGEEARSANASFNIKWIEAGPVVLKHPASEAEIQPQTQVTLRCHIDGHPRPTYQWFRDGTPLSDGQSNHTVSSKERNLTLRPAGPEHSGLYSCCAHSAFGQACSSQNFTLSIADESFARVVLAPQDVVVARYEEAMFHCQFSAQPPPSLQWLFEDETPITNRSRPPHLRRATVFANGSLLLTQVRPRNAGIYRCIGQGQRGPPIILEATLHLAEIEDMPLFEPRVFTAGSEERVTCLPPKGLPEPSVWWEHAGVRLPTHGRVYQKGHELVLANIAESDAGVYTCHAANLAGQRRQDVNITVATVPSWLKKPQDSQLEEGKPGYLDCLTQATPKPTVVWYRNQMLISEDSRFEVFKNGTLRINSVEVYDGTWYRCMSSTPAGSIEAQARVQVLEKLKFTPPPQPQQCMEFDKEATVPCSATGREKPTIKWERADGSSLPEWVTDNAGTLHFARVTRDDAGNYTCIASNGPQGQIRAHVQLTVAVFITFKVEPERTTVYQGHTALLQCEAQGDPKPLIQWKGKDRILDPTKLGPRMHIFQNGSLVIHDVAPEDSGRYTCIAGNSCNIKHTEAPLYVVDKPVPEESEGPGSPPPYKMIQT

B1: MYT11193 (antibody, V domains shown)
VH: EVQLVESGGGLVQPGGSLRLSCTASGIDLSSYVMGWVRQAPGKGLEWVGYIYHGGGTYYATWARGRFTISRDTSKNTVYLQMNSLRAEDTAVYFCARAAADFYFNLWGQGTLVTVSS
VL: EIVMTQSPSTLSASVGDRVIITCQASQSISSYLAWYQQKPGKAPKLLIYDISDLASGVPSRFSGSGSGAEFTLTISSLQPDDFATYYCQSYYWISNSGAAFGQGTKLTVL
notes: HC variant of MYT9460, sub at HCV pos 53 (H2 04)
B2: MYT11221 (antibody, V domains shown)
VH: EVQLVESGGGLVQPGGSLRLSCTASGIDLSSYVMGWVRQAPGKGLEWVGYIYGGGGTYYATWARGRFTISRDTSKNTVYLQMNSLRAEDTAVYFCARAAADFYFNLWGQGTLVTVSS
VL: EIVMTQSPSTLSASVGDRVIITCQHSQSISSYLAWYQQKPGKAPKLLIYDISDLASGVPSRFSGSGSGAEFTLTISSLQPDDFATYYCQSYYWISNSGAAFGQGTKLTVL
notes: LC variant of MYT9460, sub at LCV pos 25 (L1 02)
B3: MYT11196 (antibody, V domains shown)
VH: EVQLVESGGGLVQPGGSLRLSCTASGIDLSSYVMGWVRQAPGKGLEWVGYIYGGGHTYYATWARGRFTISRDTSKNTVYLQMNSLRAEDTAVYFCARAAADFYFNLWGQGTLVTVSS
VL: EIVMTQSPSTLSASVGDRVIITCQASQSISSYLAWYQQKPGKAPKLLIYDISDLASGVPSRFSGSGSGAEFTLTISSLQPDDFATYYCQSYYWISNSGAAFGQGTKLTVL
notes: HC variant of MYT9460, sub at HCV pos 56 (H2 07)
B4: MYT11247 (antibody, V domains shown)
VH: EVQLVESGGGLVQPGGSLRLSCTASGIDLSSYVMGWVRQAPGKGLEWVGYIYGGGGTYYATWARGRFTISRDTSKNTVYLQMNSLRAEDTAVYFCARAAADFYFNLWGQGTLVTVSS
VL: EIVMTQSPSTLSASVGDRVIITCQASQSISSYLAWYQQKPGKAPKLLIYDISDLASGVPSRFSGSGSGAEFTLTISSLQPDDFATYYCQSYYWISNSHAAFGQGTKLTVL
notes: LC variant of MYT9460, sub at LCV pos 98 (L3 10)
B5: MYT11245 (antibody, V domains shown)
VH: EVQLVESGGGLVQPGGSLRLSCTASGIDLSSYVMGWVRQAPGKGLEWVGYIYGGGGTYYATWARGRFTISRDTSKNTVYLQMNSLRAEDTAVYFCARAAADFYFNLWGQGTLVTVSS
VL: EIVMTQSPSTLSASVGDRVIITCQASQSISSYLAWYQQKPGKAPKLLIYDISDLASGVPSRFSGSGSGAEFTLTISSLQPDDFATYYCQSYYWISHSGAAFGQGTKLTVL
notes: LC variant of MYT9460, sub at LCV pos 96 (L3 08)
B6: MYT11194 (antibody, V domains shown)
VH: EVQLVESGGGLVQPGGSLRLSCTASGIDLSSYVMGWVRQAPGKGLEWVGYIYGHGGTYYATWARGRFTISRDTSKNTVYLQMNSLRAEDTAVYFCARAAADFYFNLWGQGTLVTVSS
VL: EIVMTQSPSTLSASVGDRVIITCQASQSISSYLAWYQQKPGKAPKLLIYDISDLASGVPSRFSGSGSGAEFTLTISSLQPDDFATYYCQSYYWISNSGAAFGQGTKLTVL
notes: HC variant of MYT9460, sub at HCV pos 54 (H2 05)
B7: MYT11236 (antibody, V domains shown)
VH: EVQLVESGGGLVQPGGSLRLSCTASGIDLSSYVMGWVRQAPGKGLEWVGYIYGGGGTYYATWARGRFTISRDTSKNTVYLQMNSLRAEDTAVYFCARAAADFYFNLWGQGTLVTVSS
VL: EIVMTQSPSTLSASVGDRVIITCQASQSISSYLAWYQQKPGKAPKLLIYDISDLHSGVPSRFSGSGSGAEFTLTISSLQPDDFATYYCQSYYWISNSGAAFGQGTKLTVL
notes: LC variant of MYT9460, sub at LCV pos 55 (L2 06)
B8: MYT11240 (antibody, V domains shown)
VH: EVQLVESGGGLVQPGGSLRLSCTASGIDLSSYVMGWVRQAPGKGLEWVGYIYGGGGTYYATWARGRFTISRDTSKNTVYLQMNSLRAEDTAVYFCARAAADFYFNLWGQGTLVTVSS
VL: EIVMTQSPSTLSASVGDRVIITCQASQSISSYLAWYQQKPGKAPKLLIYDISDLASGVPSRFSGSGSGAEFTLTISSLQPDDFATYYCQSHYWISNSGAAFGQGTKLTVL
notes: LC variant of MYT9460, sub at LCV pos 91 (L3 03)
B9: MYT11222 (antibody, V domains shown)
VH: EVQLVESGGGLVQPGGSLRLSCTASGIDLSSYVMGWVRQAPGKGLEWVGYIYGGGGTYYATWARGRFTISRDTSKNTVYLQMNSLRAEDTAVYFCARAAADFYFNLWGQGTLVTVSS
VL: EIVMTQSPSTLSASVGDRVIITCQAHQSISSYLAWYQQKPGKAPKLLIYDISDLASGVPSRFSGSGSGAEFTLTISSLQPDDFATYYCQSYYWISNSGAAFGQGTKLTVL
notes: LC variant of MYT9460, sub at LCV pos 26 (L1 03)
B10: MYT11229 (antibody, V domains shown)
VH: EVQLVESGGGLVQPGGSLRLSCTASGIDLSSYVMGWVRQAPGKGLEWVGYIYGGGGTYYATWARGRFTISRDTSKNTVYLQMNSLRAEDTAVYFCARAAADFYFNLWGQGTLVTVSS
VL: EIVMTQSPSTLSASVGDRVIITCQASQSISSYHAWYQQKPGKAPKLLIYDISDLASGVPSRFSGSGSGAEFTLTISSLQPDDFATYYCQSYYWISNSGAAFGQGTKLTVL
notes: LC variant of MYT9460, sub at LCV pos 33 (L1 10)
B11: MYT11210 (antibody, V domains shown)
VH: EVQLVESGGGLVQPGGSLRLSCTASGIDLSSYVMGWVRQAPGKGLEWVGYIYGGGGTYYATWARGRFTISRDTSKNTVYLQMNSLRAEDTAVYFCARAAHDFYFNLWGQGTLVTVSS
VL: EIVMTQSPSTLSASVGDRVIITCQASQSISSYLAWYQQKPGKAPKLLIYDISDLASGVPSRFSGSGSGAEFTLTISSLQPDDFATYYCQSYYWISNSGAAFGQGTKLTVL
notes: HC variant of MYT9460, sub at HCV pos 100 (H3 05)
B12: MYT11246 (antibody, V domains shown)
VH: EVQLVESGGGLVQPGGSLRLSCTASGIDLSSYVMGWVRQAPGKGLEWVGYIYGGGGTYYATWARGRFTISRDTSKNTVYLQMNSLRAEDTAVYFCARAAADFYFNLWGQGTLVTVSS
VL: EIVMTQSPSTLSASVGDRVIITCQASQSISSYLAWYQQKPGKAPKLLIYDISDLASGVPSRFSGSGSGAEFTLTISSLQPDDFATYYCQSYYWISNHGAAFGQGTKLTVL
notes: LC variant of MYT9460, sub at LCV pos 97 (L3 09)
B13: MYT11213 (antibody, V domains shown)
VH: EVQLVESGGGLVQPGGSLRLSCTASGIDLSSYVMGWVRQAPGKGLEWVGYIYGGGGTYYATWARGRFTISRDTSKNTVYLQMNSLRAEDTAVYFCARAAADFHFNLWGQGTLVTVSS
VL: EIVMTQSPSTLSASVGDRVIITCQASQSISSYLAWYQQKPGKAPKLLIYDISDLASGVPSRFSGSGSGAEFTLTISSLQPDDFATYYCQSYYWISNSGAAFGQGTKLTVL
notes: HC variant of MYT9460, sub at HCV pos 103 (H3 08)
B14: MYT11244 (antibody, V domains shown)
VH: EVQLVESGGGLVQPGGSLRLSCTASGIDLSSYVMGWVRQAPGKGLEWVGYIYGGGGTYYATWARGRFTISRDTSKNTVYLQMNSLRAEDTAVYFCARAAADFYFNLWGQGTLVTVSS
VL: EIVMTQSPSTLSASVGDRVIITCQASQSISSYLAWYQQKPGKAPKLLIYDISDLASGVPSRFSGSGSGAEFTLTISSLQPDDFATYYCQSYYWIHNSGAAFGQGTKLTVL
notes: LC variant of MYT9460, sub at LCV pos 95 (L3 07)
B15: MYT11238 (antibody, V domains shown)
VH: EVQLVESGGGLVQPGGSLRLSCTASGIDLSSYVMGWVRQAPGKGLEWVGYIYGGGGTYYATWARGRFTISRDTSKNTVYLQMNSLRAEDTAVYFCARAAADFYFNLWGQGTLVTVSS
VL: EIVMTQSPSTLSASVGDRVIITCQASQSISSYLAWYQQKPGKAPKLLIYDISDLASGVPSRFSGSGSGAEFTLTISSLQPDDFATYYCHSYYWISNSGAAFGQGTKLTVL
notes: LC variant of MYT9460, sub at LCV pos 89 (L3 01)
B16: MYT11197 (antibody, V domains shown)
VH: EVQLVESGGGLVQPGGSLRLSCTASGIDLSSYVMGWVRQAPGKGLEWVGYIYGGGGHYYATWARGRFTISRDTSKNTVYLQMNSLRAEDTAVYFCARAAADFYFNLWGQGTLVTVSS
VL: EIVMTQSPSTLSASVGDRVIITCQASQSISSYLAWYQQKPGKAPKLLIYDISDLASGVPSRFSGSGSGAEFTLTISSLQPDDFATYYCQSYYWISNSGAAFGQGTKLTVL
notes: HC variant of MYT9460, sub at HCV pos 57 (H2 08)
B17: MYT11224 (antibody, V domains shown)
VH: EVQLVESGGGLVQPGGSLRLSCTASGIDLSSYVMGWVRQAPGKGLEWVGYIYGGGGTYYATWARGRFTISRDTSKNTVYLQMNSLRAEDTAVYFCARAAADFYFNLWGQGTLVTVSS
VL: EIVMTQSPSTLSASVGDRVIITCQASQHISSYLAWYQQKPGKAPKLLIYDISDLASGVPSRFSGSGSGAEFTLTISSLQPDDFATYYCQSYYWISNSGAAFGQGTKLTVL
notes: LC variant of MYT9460, sub at LCV pos 28 (L1 05)
B18: MYT11225 (antibody, V domains shown)
VH: EVQLVESGGGLVQPGGSLRLSCTASGIDLSSYVMGWVRQAPGKGLEWVGYIYGGGGTYYATWARGRFTISRDTSKNTVYLQMNSLRAEDTAVYFCARAAADFYFNLWGQGTLVTVSS
VL: EIVMTQSPSTLSASVGDRVIITCQASQSHSSYLAWYQQKPGKAPKLLIYDISDLASGVPSRFSGSGSGAEFTLTISSLQPDDFATYYCQSYYWISNSGAAFGQGTKLTVL
notes: LC variant of MYT9460, sub at LCV pos 29 (L1 06)
B19: MYT11195 (antibody, V domains shown)
VH: EVQLVESGGGLVQPGGSLRLSCTASGIDLSSYVMGWVRQAPGKGLEWVGYIYGGHGTYYATWARGRFTISRDTSKNTVYLQMNSLRAEDTAVYFCARAAADFYFNLWGQGTLVTVSS
VL: EIVMTQSPSTLSASVGDRVIITCQASQSISSYLAWYQQKPGKAPKLLIYDISDLASGVPSRFSGSGSGAEFTLTISSLQPDDFATYYCQSYYWISNSGAAFGQGTKLTVL
notes: HC variant of MYT9460, sub at HCV pos 55 (H2 06)

In this test the target is T1, Human PTK7 Protein, His Tag, Acro …. Kind of test: BLI (Octet), antibody on anti-human Fc sensor, 50 nM PTK7, dissociation at pH 7.4 or 5.4; 1 = pH dependent binding relative to parent.
B1: the binding result is given as “binds”.
Take B2: the binding result is “binds”.
With B3 the entry was “binds”; with B4, “binds”; with B5, “binds”.
On to B6, for which the binding result is on record as “binds”.
In the case of B7, the binding result is “binds”.
With B8 the entry was “binds”; with B9, “binds”; with B10, “binds”.
As for B11, the binding result is recorded as “binds”.
B12: the binding result is “binds”.
With B13 the entry was “binds”; with B14, “binds”.
With B15 the entry was “binds”.
Turning to B16, the binding result is “binds”.
With B17 the entry was “binds”; with B18, “binds”.
As for B19, the entry is “binds”.
